Experimental data reported in US20250034256A1 (EUCURE BEIJING BIOPHARMA, published 2025).
Where a chain is given by its changes, count along the chain named. Numbers in names are those of the source. Values belong to the binder of their own block, whether it stands above or below them.

Key:
[1] = target: T1, mouse PD-1 (mPD-1) on transfected CHO cells (mouse, UniProt Q02242 25-288); assay: flow cytometry, antibody at 1 µg/ml on CHO cells transfected with mPD-1 (CHO-mPD-1); anti-mIgG Fc-FITC against SSC-H
T1 sequence: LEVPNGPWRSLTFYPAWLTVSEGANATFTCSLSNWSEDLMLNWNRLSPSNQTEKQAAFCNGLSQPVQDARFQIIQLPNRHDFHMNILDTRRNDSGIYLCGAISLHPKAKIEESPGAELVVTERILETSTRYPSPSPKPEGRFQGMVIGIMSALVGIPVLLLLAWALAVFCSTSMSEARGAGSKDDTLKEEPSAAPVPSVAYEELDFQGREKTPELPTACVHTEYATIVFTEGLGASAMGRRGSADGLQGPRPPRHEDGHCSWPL
Description: (§1) 25 μl CHO cells were added to each well.
(§2) After being washed with PBS (1200 rmp, 5 min) twice, 50 μl of FITC labeled anti-mouse IgG Fc antibody (anti-mIgG Fc-FITC) was added into each well 1:500 dilution, followed by incubated at 4° C. for 30 minutes, and then PBS wash (1200 rmp, 5 min). The signals for FITC were determined by flow cytometry.

[2] = target: T2, monkey (rhesus macaque) PD-1 (rmPD-1) on transfected CHO cells (rhesus macaque, UniProt Q15116 25-288 (human entry)); assay: flow cytometry, antibody at 1 µg/ml on CHO cells transfected with rmPD-1 (CHO-rmPD-1); anti-mIgG Fc-FITC against SSC-H
T2 construct: also called monkey PD-1
T2 chain: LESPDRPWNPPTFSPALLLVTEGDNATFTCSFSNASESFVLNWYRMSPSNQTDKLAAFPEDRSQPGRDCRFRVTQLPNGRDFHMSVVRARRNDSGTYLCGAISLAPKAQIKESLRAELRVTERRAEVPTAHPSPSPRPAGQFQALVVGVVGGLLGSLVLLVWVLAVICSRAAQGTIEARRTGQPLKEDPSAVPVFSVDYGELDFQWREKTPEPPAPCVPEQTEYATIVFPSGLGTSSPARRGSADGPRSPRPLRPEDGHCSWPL
Description: as §1, §2

[3] = target: T1, mouse PD-1 (mPD-1) on transfected CHO …; assay: flow cytometry on CHO cells transfected with mouse PD-1
Description: as §1, §2

[4] = target: T3, Histidine-tagged human PD-1 protein (hPD-1-His) (human, UniProt Q15116 25-170, limits assumed); assay: SPR (Biacore T200), antibody captured on Protein A chip, hPD-1-His analyte, 1:1 fit
T3 construct: Soluble analyte in SPR; not shown: histidine tag
T3 sequence (Q15116 25-170 limits assumed): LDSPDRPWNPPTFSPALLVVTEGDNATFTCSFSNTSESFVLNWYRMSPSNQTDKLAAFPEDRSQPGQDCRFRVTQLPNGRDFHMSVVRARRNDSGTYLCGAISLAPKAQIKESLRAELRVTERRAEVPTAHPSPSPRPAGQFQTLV
Description: The binding affinity of the anti-hPD-1 antibodies were measured using surface plasmon resonance (SPR) using Biacore™ (Biacore™, INC, Piscataway N.J.) T200 biosensor equipped with pre-immobilized Protein A sensor chips.
Histidine-tagged human PD-1 proteins (hPD-1-His) at the concentration of 200, 100, 50, 25, 12.5, 6.25, 3.125, 1.5625 nM were then injected at 30 μL/min for 100 seconds. Dissociation was monitored for 400 seconds. The chip was regenerated after the last injection of each titration with Glycine (pH 2.0, 30 μL/min for 12 seconds).
As a person of ordinary skill in the art would understand, the same method with appropriate adjustments for parameters (e.g., antibody concentration) was performed for each tested antibody.

B2: 1A7-H2K2-IgG4-S228P (antibody, V domains shown)
VH: EVQLVESGGGLVQPGGSLRLSCAASGFTFSSYSMSWVRQAPGKRLEWVAHISSGGSSTYYPDTVKGRFTISRDNSKNTLYLQMNSLRAEDTAMYYCTRQFYYGSSFWYFDVWGAGTTVTVSS
VL: DNVLTQSPATLSVSPGERATLSCKASQSVDFDGDSYMNWYQQKPGQPPRLLIYAASNLESGIPARFSGSGPGTDFTLTISSLEPEDFATYYCQQSNEDPPTFGGGTKVEIK
notes: Humanized; human IgG4 constant domains with S228P (EU numbering)
Kd [4]: 57.8 nM
koff [4]: 0.00282 s⁻¹
kon [4]: 48800 M⁻¹ s⁻¹

B3: 1A7-H3K3-IgG4-S228P (antibody, V domains shown)
VH: B2 VH with Q3K
VL: B2 VL with P71S, L82V
notes: as for B2
Kd [4]: 12.9 nM
koff [4]: 0.00132 s⁻¹
kon [4]: 102000 M⁻¹ s⁻¹

B9: 1A7-H3K1-IgG4-S228P (antibody, V domains shown)
VH: B2 VH with Q3K
VL: B2 VL with V13L
notes: as for B2
Kd [4]: 39.9 nM
koff [4]: 0.00264 s⁻¹
kon [4]: 66200 M⁻¹ s⁻¹

B10: 1A7-H2K1-IgG4-S228P (antibody, V domains shown)
VH: B2 VH
VL: B2 VL with V13L
notes: as for B2
Kd [4]: 57.3 nM
koff [4]: 0.0028 s⁻¹
kon [4]: 48900 M⁻¹ s⁻¹

B11: mouse anti-hPD-1 antibody 18-3F1 (antibody, V domains shown)
VH: QVQLQQSGAELAKPGASVKMSCKASGYTFTSYWMHWVKQRPGQGLEWIGYINPSTGYTEYNQKFKDKATLTADKSSSTAYMQLSSLTSEDSAVYYCARGVRYYFDYWGQGTTLTVSS
VL: DIVMSQSPSSLAVSAGEKVTMSCKSSQSLLNSRTRKNYLAWYQQKPGQSPKLLIYWASTRESGVPDRFTGSGSGTDFTLTISSVQAEDLAVYYCKQSYNLLTFGAGTKLELK
notes: Mouse monoclonal antibody purified from ascites
% cells positive for Anti-mouse-IgGFc-FITC [1]: 1.51%
% cells positive for Anti-mouse-IgGFc-FITC [2]: 63.6%
binding result [3]: no binding (tested: 1 µg/ml)

B13: 3F1-H3K2-IgG4-S228P (antibody, V domains shown)
VH: B11 VH with L11V, K67R, K74T, S76T, Q82E, T87R, S91T, T112L
VL: B11 VL with S5T, S9D, A15L, K18R, V19A, T69S, L89V, A105Q
notes: as for B2
Kd [4]: 296 nM
koff [4]: 0.0015 s⁻¹
kon [4]: 5060 M⁻¹ s⁻¹

B14: 3F1-H4K2-IgG4-S228P (antibody, V domains shown)
VH: B11 VH with L11V, K67R, S76T, Q82E, S91T, T112L
VL: B11 VL with S5T, S9D, A15L, K18R, V19A, T69S, L89V, A105Q
notes: as for B2
Kd [4]: 369 nM
koff [4]: 0.00177 s⁻¹
kon [4]: 4800 M⁻¹ s⁻¹

B18: 3F1-H4K1-IgG4-S228P (antibody, V domains shown)
VH: B11 VH with L11V, K67R, S76T, Q82E, S91T, T112L
VL: B11 VL with S5T, S9D, A15L, K18R, V19A, M21I, T69S, L89V, A105Q
notes: as for B2
Kd [4]: 460 nM
koff [4]: 0.00204 s⁻¹
kon [4]: 4420 M⁻¹ s⁻¹

B19: 3F1-H1K3-IgG4-S228P (antibody, V domains shown)
VH: QVQLQQSGAEVKKPGASVKMSCKASGYTFTSYWMHWVRQAPGQGLEWIGYINPSTGYTEYNQKFKDRATLTADTSTSTAYMELSSLRSEDTAVYYCARGVRYYFDYWGQGTLVTVSS
VL: B11 VL with S5T, K18R, T69S, L89V, A105Q
notes: as for B2
Kd [4]: 275 nM
koff [4]: 0.00132 s⁻¹
kon [4]: 4790 M⁻¹ s⁻¹

B21: 3F1-H3K3-IgG4-S228P (antibody, V domains shown)
VH: B19 VH with K12A, R38K, A40R, V113L
VL: B11 VL with S5T, K18R, T69S, L89V, A105Q
notes: as for B2
Kd [4]: 318 nM
koff [4]: 0.00139 s⁻¹
kon [4]: 4380 M⁻¹ s⁻¹

B22: 3F1-H4K3-IgG4-S228P (antibody, V domains shown)
VH: B11 VH with L11V, K67R, S76T, Q82E, S91T, T112L
VL: B11 VL with S5T, K18R, T69S, L89V, A105Q
notes: as for B2
Kd [4]: 397 nM
koff [4]: 0.00161 s⁻¹
kon [4]: 4060 M⁻¹ s⁻¹

B24: mouse anti-hPD-1 antibody 3-6G1 (antibody, V domains shown)
VH: B11 VH with V18L, F29L, S54N, V100T, R101A
VL: B11 VL with L101Q, A105G, L111I
notes: Mouse monoclonal antibody purified from ascites; also called 03-6G1
% cells positive for Anti-mouse-IgGFc-FITC [1]: 0.502%
% cells positive for Anti-mouse-IgGFc-FITC [2]: 64.3%
binding result [3]: no binding (tested: 1 µg/ml)

B25: 3F1-H1K2-IgG4-S228P (antibody, V domains shown)
VH: B19 VH
VL: B11 VL with S5T, S9D, A15L, K18R, V19A, T69S, L89V, A105Q
notes: as for B2
Kd [4]: 294 nM
koff [4]: 0.00155 s⁻¹
kon [4]: 5270 M⁻¹ s⁻¹

Results, then the binder that gave them:

% cells positive for Anti-mouse-IgGFc-FITC [1]: 0.381%
% cells positive for Anti-mouse-IgGFc-FITC [2]: 85%
binding result [3]: no binding (tested: 1 µg/ml)
B1: mouse anti-hPD-1 antibody 25-1A7 (antibody, V domains shown)
VH: B2 VH with Q3K, R19K, A40T, G42E, S75A, K76R, N84S, R87K, A88S
VL: DNVLTQSPVSLAVSLGQRATISCKASQSVDFDGDSYMNWYQQKPGQPPKLLIYAASNLESGIPARFSGSGSGTDFTLNIHPVEEEDAATYYCQQSNEDPPTFGGGTKLEIK
notes: as for B11

Kd [4]: 47.9 nM
koff [4]: 0.00272 s⁻¹
kon [4]: 56800 M⁻¹ s⁻¹
B4: 1A7-H1K1-IgG4-S228P (antibody, V domains shown)
VH: B2 VH with V5L, A114Q
VL: B2 VL with V13L
notes: as for B2

Kd [4]: 10.1 nM
koff [4]: 0.00119 s⁻¹
kon [4]: 118000 M⁻¹ s⁻¹
B5: 1A7-H1K3-IgG4-S228P (antibody, V domains shown)
VH: B2 VH with V5L, A114Q
VL: B2 VL with P71S, L82V
notes: as for B2

Kd [4]: 11.9 nM
koff [4]: 0.00136 s⁻¹
kon [4]: 115000 M⁻¹ s⁻¹
B6: 1A7-H2K3-IgG4-S228P (antibody, V domains shown)
VH: B2 VH
VL: B2 VL with P71S, L82V
notes: as for B2

Kd [4]: 32.1 nM
koff [4]: 0.00265 s⁻¹
kon [4]: 82600 M⁻¹ s⁻¹
B7: 1A7-H1K2-IgG4-S228P (antibody, V domains shown)
VH: B2 VH with V5L, A114Q
VL: B2 VL
notes: as for B2

Kd [4]: 58.2 nM
koff [4]: 0.0028 s⁻¹
kon [4]: 48100 M⁻¹ s⁻¹
B8: 1A7-H3K2-IgG4-S228P (antibody, V domains shown)
VH: B2 VH with Q3K
VL: B2 VL
notes: as for B2

Kd [4]: 346 nM
koff [4]: 0.00128 s⁻¹
kon [4]: 3700 M⁻¹ s⁻¹
B12: 3F1-mHvKv-IgG4-S228P (antibody, V domains shown)
VH: B11 VH
VL: B11 VL
notes: Chimeric antibody: mouse 3F1 variable domains, human IgG4 constant domains (CL, CH1, CH2, CH3) with S228P (EU numbering); also called 18-3F1-mHvKv-IgG4-S228P; 3F1-mHyKy-IgG4-S228P

Kd [4]: 376 nM
koff [4]: 0.00181 s⁻¹
kon [4]: 4810 M⁻¹ s⁻¹
B15: 3F1-H1K1-IgG4-S228P (antibody, V domains shown)
VH: B19 VH
VL: B11 VL with S5T, S9D, A15L, K18R, V19A, M21I, T69S, L89V, A105Q
notes: as for B2

Kd [4]: 395 nM
koff [4]: 0.00179 s⁻¹
kon [4]: 4530 M⁻¹ s⁻¹
B16: 3F1-H3K1-IgG4-S228P (antibody, V domains shown)
VH: B19 VH with K12A, R38K, A40R, V113L
VL: B11 VL with S5T, S9D, A15L, K18R, V19A, M21I, T69S, L89V, A105Q
notes: as for B2

Kd [4]: 354 nM
koff [4]: 0.0017 s⁻¹
kon [4]: 4810 M⁻¹ s⁻¹
B17: 3F1-H2K2-IgG4-S228P (antibody, V domains shown)
VH: B19 VH with R38K, A40R, T74K
VL: B11 VL with S5T, S9D, A15L, K18R, V19A, T69S, L89V, A105Q
notes: as for B2

Kd [4]: 422 nM
koff [4]: 0.00192 s⁻¹
kon [4]: 4550 M⁻¹ s⁻¹
B20: 3F1-H2K1-IgG4-S228P (antibody, V domains shown)
VH: B19 VH with R38K, A40R, T74K
VL: B11 VL with S5T, S9D, A15L, K18R, V19A, M21I, T69S, L89V, A105Q
notes: as for B2

Kd [4]: 329 nM
koff [4]: 0.00145 s⁻¹
kon [4]: 4410 M⁻¹ s⁻¹
B23: 3F1-H2K3-IgG4-S228P (antibody, V domains shown)
VH: B19 VH with R38K, A40R, T74K
VL: B11 VL with S5T, K18R, T69S, L89V, A105Q
notes: as for B2
